Where “and” joins values, the source holds several entries; their conditions need not be identical. Equal entries are not always repeated.
Experiments:
Conditions in all cases: both partners purified
[1] = target: T1, HspA5 substrate binding domain (SBD) (human, UniProt P11021 420-654); assay: MST; NTA-labelled TDP-43(102-269), HspA5 titrated, in the presence of UG6 RNA (increasing concentrations; concentration not given)
T1 construct: SBD approximately 200 amino acids long; vector pSpeedET; also called HspA5-SBD; Grp78; source: E. coli BL21-Codon plus, purified (cobalt IMAC, TEV cleavage)
T1 sequence (P11021 420-654): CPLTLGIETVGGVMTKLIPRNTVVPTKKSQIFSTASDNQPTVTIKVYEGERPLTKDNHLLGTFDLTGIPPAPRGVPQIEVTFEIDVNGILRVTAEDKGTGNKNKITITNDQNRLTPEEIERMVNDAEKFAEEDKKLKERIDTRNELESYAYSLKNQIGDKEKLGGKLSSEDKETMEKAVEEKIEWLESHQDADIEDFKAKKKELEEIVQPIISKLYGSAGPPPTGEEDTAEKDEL

[2] = target: T1, HspA5 substrate binding domain (SBD); assay: MST; 50 nM labelled TDP-43 construct (RED-NTA labelling), ranging concentrations of Hsp70 SBD titrated, MST buffer, premium capillaries, 40% LED, medium MST power; no RNA
[3] = target: T2, HspA1A substrate binding domain (SBD) (human, UniProt P0DMV8 395-641); assay: as above
T2 construct: SBD approximately 200 amino acids long; vector pSpeedET; also called Hsp70 SBD; source: E. coli BL21-Codon plus, purified (cobalt IMAC, TEV cleavage)
T2 sequence (P0DMV8 395-641): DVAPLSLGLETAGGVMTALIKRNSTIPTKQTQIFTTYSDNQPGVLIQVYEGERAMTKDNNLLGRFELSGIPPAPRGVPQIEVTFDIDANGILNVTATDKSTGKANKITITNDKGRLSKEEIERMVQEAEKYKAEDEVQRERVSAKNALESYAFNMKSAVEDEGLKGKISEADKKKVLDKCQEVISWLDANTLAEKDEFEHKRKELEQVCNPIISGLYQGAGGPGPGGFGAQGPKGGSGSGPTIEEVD

B1: TDP43_(102-269)-His (domain or fragment, human, UniProt Q13148 102-269, looked up)
chain: KTSDLIVLGLPWKTTEQDLKEYFSTFGEVLMVQVKKDLKTGHSKGFGFVRFTEYETQVKVMSQRHMIDGRWCDCKLPNSKQSQDEPLRSRKVFVGRCTEDMTEDELREFFSQYGDVMDVFIPKPFRAFAFVTFADDQIAQSLCGEDLIIKGISVHISNAEPKHNSNRQ
modifications: labelled with Monolith Protein Labeling Kit RED-NTA
notes: also called RRM domain; RRM domains of TDP-43; source: recombinantly expressed, purified
B1 was tested, and the Kd [1] was 28300 nM, the Kd [2] was 298 nM and 890 nM and the Kd [3] was 2350 nM.

From paper PMC9114370, “Heat shock protein Grp78/BiP/HspA5 binds directly to TDP-43 and mitigates toxicity associated with disease pathology” (Scientific Reports, 2022)
